# How the values were obtained:
# [1] = system: template bleeding time; design: species or system Macaca fascicularis; conditions: cynomolgus monkey, in vivo
# Description: In order to evaluate one aspect of the safety of zsig37 and its effect on template bleeding time, a pre-clinical model in Macaca fascicularis was used. Time to cessation of bleeding from standardized incisions on the animal's forearm, a procedure previously described by Wu, et al., Blood, 2002, 99:3623-3628, was employed to assess the effect of zsig37 on bleeding.
# Methods. Five female and twelve male, Macaca fascicularis weighing 2.3 to 4.6 kg were used as test subjects on this project. The animals were immobilized with ketamine hydrochloride (Phoenix Scientific) administered intramuscularly at approximately 10 mg/kg. Each animal was examined, and the animal determined to be acceptable for the study. The right forearm, abdomen, ventral neck and inguinal area were shaved free of hair. The animal was transported to the surgical suite (University of Washington Regional Primate Research Center), positioned inside a heated air circulation system and placed onto isoflurane (Abbott Laboratories) inhalation anesthesia delivered through positive pressure ventilation via an endotracheal tube. […] The time to cessation of bleeding was determined and recorded for each animal. Bleeding times were determined for each animal prior to any treatment, after low molecular weight heparin (Lovenox™, Rhone Polenc, Inc.) treatment and after zsig37 treatment.
# [2] = system: TF-1 cells; test: Adhesion and spreading of TF-1 cells on zsig37-coated plates; type: cell-based; conditions: plates coated in PBS vs 0.1 M NaCO3
# Method: The ability of zsig37 to stimulate adhesion and spreading of TF-1 cells was assayed as follows. A series of dilutions were prepared from C-terminal Glu-Glu-tagged zsig37, from 10 to 0.0625 ’g/ml, in either PBS or ELISA coating buffer (0.1 M NaCO3) and each was plated into a 96 well plate (Costar; Pleasanton, Calif.) at 100 μl/well. The plates were incubated at 37° C., 5% CO2 for 2 hours. The plates were then washed 3× with RPMI/10% FBS (RPMI 1640, 2 mM L-glutamine, 110 μg/ml sodium pyruvate, PSN and 10% heat inactivated fetal bovine serum) and allowed to block for 15 minutes.
# TF-1 cells (derived from acute myeloid leukemia cells) were resuspended in RPMI/10% FBS and plated into at 10,000 cells/well into the zsig37CEE-coated 96 well plates at a final volume of 120 μl/well. The plate was incubated at 37° C. under 5% CO2 for 2 hours. The plates were then washed 3× with PBS and 200 μl/well growth media (RPMI/10% FBS, 5 ng/ml GM-CSF) was added. The cells were microscopically inspected before and after the wash.
# A dye incorporation assay was also used to measure the number of adherent cells based on a colorimetric change and an increase in fluorescent signal. ALAMAR BLUE (AccuMed; Chicago, Ill.) was added to the 96 well plates and the cells were incubated at 37° C. under 5% CO2 overnight. […]
Molecule,template bleeding time vs control (1.0 mg/kg BSA) [1],adherent cells (ALAMAR BLUE dye incorporation) [2]
"ReoPro: comparator in template bleeding time study, 0.25 mg/kg [reference compound]",unable to stop their bleeding,
zsig37CEE: zsig37 polypeptide having a C-terminal Glu-Glu tag (protein) LVLSRVPHVQGEQQEWEGTEELPSPPDHAERAEEQHEKYRPSQDQGLPASRCLRCCDPGTSMYPATAVPQINITILKGEKGDRGDRGLQGKYGKTGSAGARGHTGPKGQKGSMGAPGERCKSHYAAFSVGRKKPMHSNHYYQTVIFDTEFVNLYDHFNMFTGKFYCYVPGLYFFSLNVHTWNQKETYLHIMKNEEEVVILFAQVGDRSIMQSQSLMLELREQDQVWVRLYKGERENAIFSEELDTYITFSGYLVKHATEPEEYMPME,,more adherent cells on the C-terminal Glu-Glu tagged (zsig37CEE)-PBS coated plates than on the zsig37CEE-0.1 M NaCO3 coated plates

# From patent US20060252692A1, “Inhibitors for use in hemostasis” (ZymoGenetics, Inc., priority 2002, published 2006)
